Results taken from publication PMC10998826 (EJNMMI Research, 2024).

Legend:
Dosimetry of kidneys = format: in vivo, humans; settings: for Kidney dose: median
Procedure: Planar whole-body scintigraphy and quantitative SPECT/CT acquisitions of neck/thorax/abdomen/pelvis were acquired with a hybrid SPECT/CT system (Siemens Intevo, Siemens Erlangen, Germany) at 1, 4, 24 and 72 h post injection (p.i.).
Kidney dosimetry was performed using the dosimetry workflow in the DRT, which includes automatic organ segmentation, time activity curve modelling, and absorbed dose calculation using the medical internal radiation dosimetry (MIRD) method and voxel dosimetry.
After automatic organ segmentation in the 24 h SPECT images, the kidney VOIs were manually corrected to ensure accurate segmentation. Then, the SPECT images at 1, 4 and 72 h where manually co-registered to the 24 h images. Time activity curves were fitted to the measured kidney activity at the four time points using a single exponential function. The calculated and measured data were then used to estimate the absorbed dose in the kidneys using the MIRD method.
Bone marrow and kidney dosimetry was performed as described before.

[1] = In-vivo stability in blood (radio-HPLC of plasma, % intact peptide); parameters: species or system humans; settings: for Stability (% of initial signal): in-vivo, plasma radio-HPLC
Procedure: Patients were allowed a light breakfast at the day of each infusion. […] Entresto® was given at an oral dose of 100 mg, containing 48.6 mg sacubitril and 51.4 mg valsartan 2 h before the start of one of the two infusions. Vital signs were recorded, and a 12-lead electrocardiogram was obtained before and after each injection. Adverse events were recorded and graded according to Common Terminology Criteria for Adverse Events (CTCAE) version 4.03.
Blood samples were collected in polypropylene tubes containing ethylenediaminetetraacetic acid at 5, 15, 30 and 60 min after administration of ^177Lu-PP-F11N. The tubes were placed on ice. Plasma was separated by centrifugation (4000 g for 10 min) and protein precipitation followed using cold methanol (v/v 1/2). The mixture was stirred to favor precipitation of proteins and then centrifuged at 4000 g for 10 min. The supernatant was collected and filtered through a […] filter (Millex®-GV, Merck Millipore, Bedford, MA, USA). The clear solution was diluted with H2O (1:1) and then analyzed by radio-high performance liquid chromatography (HPLC) to determine the percentage of intact peptide over time. HPLCs were performed on the Agilent 1260 infinity instrument (Agilent, Santa Clara, United States) connected to a GABI radioactivity-HPLC-flow-monitor γ-spectrometer (Elysia-raytest, Straubenhardt, Germany).

SMILES: CSCC[C@H](NC(=O)[C@H](Cc1c[nH]c2ccccc12)NC(=O)CNC(=O)[C@H](Cc1ccc(O)cc1)NC(=O)[C@H](C)NC(=O)[C@@H](CCC(=O)O)NC(=O)[C@@H](CCC(=O)O)NC(=O)[C@@H](CCC(=O)O)NC(=O)[C@@H](CCC(=O)O)NC(=O)[C@@H](CCC(=O)O)NC(=O)[C@@H](CCC(=O)O)NC(=O)CN1CCN(CC(=O)O)CCN(CC(=O)O)CCN(CC(=O)O)CC1)C(=O)N[C@@H](CC(=O)O)C(=O)N[C@@H](Cc1ccccc1)C(N)=O [[^177Lu]Lu-PP-F11N, [^177Lu]Lu-DOTA-(DGlu)6-Ala-Tyr-Gly-Trp-Met-Asp-Phe-NH2, metal not drawn]
- Median absorbed dose of kidneys after premedication compared to without (Dosimetry of kidneys; Entresto premedication, eight patients): 2.4 fold
- Kidney dose (Dosimetry of kidneys; with Entresto premedication): 0.11 Gy/GBq
- Kidney dose (Dosimetry of kidneys; without Entresto premedication): 0.05 Gy/GBq
- Median stability with Entresto premedication compared to without ([1]; 5 min p.i.): 1.1 fold
- Median stability with Entresto premedication compared to without ([1]; 15 min p.i.): 1.1 fold
- Median stability with Entresto premedication compared to without ([1]; 30 min p.i.): 1.2 fold
- Median stability with Entresto premedication compared to without ([1]; 60 min p.i.): 1.6 fold
- Stability (% of initial signal) ([1]; 5 min p.i., with Entresto premedication (100 mg oral, 2 h before), median of patients): 99.5%
- Stability (% of initial signal) ([1]; 5 min p.i., without Entresto premedication, median of patients): 94.1%
- Stability (% of initial signal) ([1]; 15 min p.i., with Entresto premedication (100 mg oral, 2 h before), median of patients): 92.1%
- Stability (% of initial signal) ([1]; 15 min p.i., without Entresto premedication, median of patients): 80.3%
- Stability (% of initial signal) ([1]; 15 min p.i., without Entresto premedication, patient 1): 69.9%
- Stability (% of initial signal) ([1]; 15 min p.i., without Entresto premedication, patient 2): 80.3%
- Stability (% of initial signal) ([1]; 15 min p.i., without Entresto premedication, patient 3): 91.4%
- Stability (% of initial signal) ([1]; 15 min p.i., without Entresto premedication, patient 4): 90.5%
- Stability (% of initial signal) ([1]; 15 min p.i., without Entresto premedication, patient 5): 88.8%
- Stability (% of initial signal) ([1]; 15 min p.i., without Entresto premedication, patient 6): 90.2%
- Stability (% of initial signal) ([1]; 15 min p.i., without Entresto premedication, patient 7): 71.4%
- Stability (% of initial signal) ([1]; 15 min p.i., without Entresto premedication, patient 8): 68.1%
- Stability (% of initial signal) ([1]; 30 min p.i., with Entresto premedication (100 mg oral, 2 h before), median of patients): 78.5%
- Stability (% of initial signal) ([1]; 30 min p.i., with Entresto premedication (100 mg oral, 2 h before), patient 1): 78.5%
- Stability (% of initial signal) ([1]; 30 min p.i., with Entresto premedication (100 mg oral, 2 h before), patient 2): 85.7%
- Stability (% of initial signal) ([1]; 30 min p.i., with Entresto premedication (100 mg oral, 2 h before), patient 3): 80.6%
- Stability (% of initial signal) ([1]; 30 min p.i., with Entresto premedication (100 mg oral, 2 h before), patient 5): 85.5%
- Stability (% of initial signal) ([1]; 30 min p.i., with Entresto premedication (100 mg oral, 2 h before), patient 6): 77.9%
- Stability (% of initial signal) ([1]; 30 min p.i., with Entresto premedication (100 mg oral, 2 h before), patient 7): 75.3%
- Stability (% of initial signal) ([1]; 30 min p.i., with Entresto premedication (100 mg oral, 2 h before), patient 8): 79.9%
- Stability (% of initial signal) ([1]; 30 min p.i., without Entresto premedication, median of patients): 64.5%
- Stability (% of initial signal) ([1]; 30 min p.i., without Entresto premedication, patient 1): 64.5%
- Stability (% of initial signal) ([1]; 30 min p.i., without Entresto premedication, patient 2): 72.3%
- Stability (% of initial signal) ([1]; 30 min p.i., without Entresto premedication, patient 3): 74.8%
- Stability (% of initial signal) ([1]; 30 min p.i., without Entresto premedication, patient 4): 67.6%
- Stability (% of initial signal) ([1]; 30 min p.i., without Entresto premedication, patient 6): 60.3%
- Stability (% of initial signal) ([1]; 30 min p.i., without Entresto premedication, patient 7): 50.1%
- Stability (% of initial signal) ([1]; 60 min p.i., with Entresto premedication (100 mg oral, 2 h before), median of patients): 64.15%
- Stability (% of initial signal) ([1]; 60 min p.i., without Entresto premedication, median of patients): 41.1%
